Experimental data published in article PMC10696883, “Discovery of a non-canonical GRHL1 binding site using deep convolutional and recurrent neural networks”.

Biological target: T1, GRHL1 DNA-binding domain (UniProt Q9NZI5 248-485)
T1 sequence: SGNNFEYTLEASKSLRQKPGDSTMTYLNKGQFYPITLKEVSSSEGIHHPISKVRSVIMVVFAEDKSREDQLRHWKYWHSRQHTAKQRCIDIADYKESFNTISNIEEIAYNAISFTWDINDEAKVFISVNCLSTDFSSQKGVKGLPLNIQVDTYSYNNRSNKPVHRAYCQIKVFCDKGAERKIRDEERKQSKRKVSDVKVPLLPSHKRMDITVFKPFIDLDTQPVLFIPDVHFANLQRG
Experiment: ITC; ITC: 20 mM HEPES-NaOH pH 7.2, 125 mM NaCl, 2 mM DTT; ~10 µM dsDNA in cell, GRHL1 165 or 200 µM (Methods: 156 or 200 µM) in syringe; triplicates; temperature not stated
Details: protein: recombinant; tags: His6 tag removed by TEV; chain copies: 2; blunt

B1: Novel_V1 (dsDNA)
DNA 1: AGGTTTTTCCAATTTGGGGC
DNA 2: GCCCCAAATTGGAAAAACCT
B1: no binding.

B2: Pos_Ctrl_V1 (dsDNA)
DNA 1: GGGCAAAACCGATTTTGCGG
DNA 2: CCGCAAAATCGGTTTTGCCC
With B2 the Kd was 3400 ± 2200 nM.

B3: Novel (dsDNA)
DNA 1: AGGTTTTTCCACTTTGGGGC
DNA 2: GCCCCAAAGTGGAAAAACCT
B3 gave a Kd of 180 ± 80 nM.

B4: Pos_Ctrl (dsDNA)
DNA 1: GGGCAAAACCGGTTTTGCGG
DNA 2: CCGCAAAACCGGTTTTGCCC
In the case of B4, the Kd is reported as 110 ± 30 nM.

B5: Pos_Ctrl_V3 (dsDNA)
DNA 1: GGGCAAAACCGTTTTTGCGG
DNA 2: CCGCAAAAACGGTTTTGCCC
Binder B5 has a Kd of 4350 ± 5400 nM.

B6: Novel_V2 (dsDNA)
DNA 1: AGGTTTTTCCAGTTTGGGGC
DNA 2: GCCCCAAACTGGAAAAACCT
For B6, the Kd was 210 ± 60 nM.

B7: Neg_Ctrl (dsDNA)
DNA 1: GCAAAAAGGAGTCATTGGTG
DNA 2: CACCAATGACTCCTTTTTGC
B7: no binding.

B8: Pos_Ctrl_V2 (dsDNA)
DNA 1: GGGCAAAACCGCTTTTGCGG
DNA 2: CCGCAAAAGCGGTTTTGCCC
B8 was tested, and the Kd was 1540 ± 300 nM.

B9: Novel_V3 (dsDNA)
DNA 1: AGGTTTTTCCATTTTGGGGC
DNA 2: GCCCCAAAATGGAAAAACCT
B9: no binding.
